From the nanobody polyreactivity screen of Harvey et al. (2022)

Test: yeast display, Sf9 membrane polyspecificity reagent, FACS + sequencing; frameworks hold sequencing errors
In short: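 After 36–48 hours of galactose induction, yeast (Saccharomyces cerevisiae BJ5465) displaying a synthetic nanobody library were stained at 4 °C for 1 hour with 10% biotinylated, detergent-solubilized Sf9 membrane reagent. Streptavidin microbeads enriched the stained cells before FACS sorting into low and high (top ~1%) gates on anti-HA and streptavidin fluorescence. Each clone's polyreactivity label reflects its gate of origin.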

Row | Sequence | polyreactivity (PSR sort gate)
1 | QVQLVESGGGLVQAGCSLRLSCAASGRIFRYYAMGWYRQAPGKERELVAAISWSGGSTYYADSVKGRFTISRDNAKNTVYLQMNSLKPEYTAVYYCAARYSLKGGRYDYWGQGTQVTVSS | high polyreactivity
2 | QVQLVESGGGLVQAGGRLRLSCAASGSTFDYYTMGGYRQAPGKERELVAGITSGGSTNYADSVKGRFTISRDNAKNTVYLQMNSLKPADTAVYYCAARVSKYYKPYGYWGQGTQVTVSS | high polyreactivity
3 | QVQLVESGGGLVQAGGSLRLSCAASGRTFIFYAMGWYRQAPGNERELVAAITLRGGGTDYADSVKGRFTISRDNAKYNVYLQMNSQKPEETAVYYCNADGYAVPRWFDPYSYLSDYWGQGTQVTVSS | low polyreactivity
4 | QVQLVESGGGLVQAGGSLRLSCAASGIIFGIYDMGWYRQAPGKERELVAAIRRSGGSTYYADSVKGRFTISRDNAKNTVYLQMNSLKPEDTAVYYCAATRHSRVRGGDYWGQGTQVTVSS | low polyreactivity
5 | QVQLVESGGGLVQAGGSLRLSCAASGSTFSSYGMGWYRQAPGKERELVAAITSSGGSTYYADSVKGRFTISRDNAKNTVYLQMNSLKPEDTAVYYCAASDVIFWLYYYWGQGTQVTVSS | low polyreactivity
6 | QVQLVESVGGLVQAGGSLRLSCAASGRTFTGNAMGWYRQAPGKERELVAAISQRGGRTNYADSVKGRFTISRDNAKNTVYLQMNSLKPEDTAVYYCAADQSYPKRLPSFEYWGQGTQVTVSS | low polyreactivity
7 | QVQLVESAGGLVQAGVSLRLSCAASGFTFAQNVMGWYRQAPGKERELVAAISVSGGSTYYADSVKGRFTISRDNAKNTVYLQMNSLKPEDTAVYYCNAVAGVTKRVDLSRSGYWGLGTQVTVSS | high polyreactivity
8 | QVQLVESGGCLVQAGGSLRLSCASSGITFFEYAMGCYRQAPGKERELVAVITSGGSTNYADSVKGRFTISRDNAKNTVYLQMNSLKPEDTAVYYCNARVVKYRWWYDYYYWGQGTQVTVSS | low polyreactivity
9 | QVQLVESGGGLVQAGGSLRLSCAASGITFRGYAMGWYRQAPGKERELVASITNTDSTYYADSVKGRFTISRDNAKNTVYLQMNSLKPEDTAVYYCNAEADPYSVDYDYWGQGTQVTVSS | high polyreactivity
10 | QVQLVESGGGLVQAGGSLRLSCAASGSTLYFYAMGWYRQAPGKERELVADITRSGGSTYYADSVKGRFTISRDNAKNTVYLQMNSLKPEDTAVYYCNADDWSTYWYGYPGYDYWGQGTQVTVSS | high polyreactivity
11 | QVQLVESGGGLVQAGGSLRLSCAASGRTFFYYAMGWYRQAPGKERELVAAISTNGGSTYYADSVKGRFTISRDNAKNTVYLQMNSMKPDDTAVYYCNTYAKPHRSGGGLGGHYYWGQGTQVTVSS | low polyreactivity
12 | QVQLVESGGGLVQAGGSLRLSCAASGRIFFYYVMGWYRQAPGKERELVAAITRSGGSTYYADSVKGRFTISRDNAKNTVYLQMNSLKPEDTAVYYCAVGDGFEYDWGQGTQVTVSS | low polyreactivity
13 | QVQLVESGGGLVQAGGSLRLSCAASGLTFEYNAMGWYRQAPGKERELVAAITSGVNTYYADSVKGRFTISRDNAKNTVYLQMNSLKPEDTAVYYCAKYRWNWRYVSRGDSWGQGTQVTVSS | high polyreactivity
14 | QVQLVESGGGLVQAGGSLRLSCAASGSTFDAYDMGWYRQAPGTERELVADINWSGGITYYADSVKGRFRISRDNAKNTVYLQMNSLKPEDTAVYYCNADASFYSRVNYWGQGTQVTVSS | high polyreactivity
15 | QVKLVESGRGLVQAGGSLRLSCAASGSIFAQNVMGWYRQAPGKERELVAAISYSGGTTYYADSVKGRFTISRDNAQNTVYLQMNSLKPEDTAVYYCAAEFGVYEYDYWGQGTQVTVSS | low polyreactivity
16 | QVQLVESGGGLVQAGGSLRLSCGASGSIRANMGSYRQAPGKETELVAVITTSGASTSYAVSVKGRFTISRDNAKNTVYLQMNRLKPEDTAVYYCAADIYYYPHTYYRDGYYYWGQGSQVTVSS | low polyreactivity
17 | QVQLVESGGGLVQAGGSLRLSCAASGFIFWAYAMGWYRLAPGKERELVAAITWNGGSTNYADSVKGRFTISRDNAKNTVYLQMNSLKPEDTAVYYCAVSRSLSFRYPGYYWGQGTQVTVSS | low polyreactivity
18 | QVQLVESGGGLVQAGGSLRLSCAASGFTFSRNVMGWYRQAPGKERELVADITLSGASTYYADSVKGRFTISRDNAKNTVYLQMNSLKPEDTAVYYCAADPYHWRWGWRLDYWGQGTQVTVSS | low polyreactivity
19 | QVQLVESGGGLVQAGGSLRLSCAASGRIFRYYAMGWYRQAPGKEREFVAAINSSGVNTYYADSVKGRFTISRDNAKNTVYLQMNSLKPEDTAVYYCAFLGMDYWGQGTQVTVSS | high polyreactivity
20 | QVQLVESGGGLVEAGGSLRLSCAASGINFWVNAMGWYRQAPGKERELVAAIRSDGSTKYADSVKGRFSSSRDNAKNTVYLQMNSLKPEDTAIYYCAKRDFSYPWLRDFYYWGQGTQVTVSS | low polyreactivity
21 | QVQLVESGGGLVQAGGSLRLSCAASGFTFKLYAMGWYRQAPGKERELVAVITTSGGRTYYADSVKGRFTISRDNANNTVYLQMTSLKPEDTAVYYCAKVVFVRVAPGYYWGQGTQVTVSS | high polyreactivity
22 | QVQLVESGGGLVQAGGSLRLSCAASGRIFSYYAMGWYRQAPGKERELVAVISRRGDNTYYADSVKGRFTISRDNAKNTVYLQMNSLKPEDTAVYYCAAYSWYAKDFDYWGQGTQVTVSS | high polyreactivity

Row | Sequence | polyreactivity (PSR sort gate)
23 | QVKLVDSGGGLVQAGGSLRLTCAASGRTLGRNGMGWYRQDPGKERELVAAISLSGGRSYADSVKGRFTISRDNAKNSVYLQMNSLKPEDTAVYYCAKVGYSRRYAYNVYYWGQGTQLTVSS | low polyreactivity
24 | QVQLVESGGGLVQAGGSLRLSCAASGFTFRRYAMGWYRQAPGKERELVAAISRGSSTYYADSVKGRFTISRDNAKNTVYLQMNSLKPEDTAVYYCAADWEQLRGTMDYWGQGTQVTVSS | high polyreactivity
25 | QVQIVESGGGLVQAGGSLRLSCAASGIIFDYYAMGWYIQAPGKERELVATITSGGSTNYADSVKGRFTISRDNAKNTVYLQMNSLKPEDSAVYYCAARTYWFPDIYPGLGMDYWGHGTQVTVSS | low polyreactivity
26 | QVQLVESGGGLVQAGGSLRLSCAASGLTYSNAMGCYRQAPGKERELVAAISWRGGRTYYADSVKGRFTISRDNAKNTVYLQMNSLKPEDTAVYYCAKYAHGHKWYGYWGQGNQVTVSS | low polyreactivity
27 | QVQLVESGGGLVQAGGSLRLSCSASGGIFWVYAMGWYRQAPGKERELVAAISNSDTSTSYADSVKGRFTISRDNAKNTVYLQMNSLKPEDTAVYYCNADSPSLSGDYWGQGTQVTVSS | low polyreactivity
28 | QVQLVESGGGLVQAGGSLRLSCASSGRIFGIYAMGWYRQAPGKESELVARITGGGSTNYADSVKGRFTISRDNAKNTVYLQMNSLKPEDTAVYYCAATVRRIVGNITRYDYWGQGTQVTVSS | low polyreactivity
29 | QVQLEDSGGGLVQAGGSLRLSCAASGFIFLPNAMGWYRQAPGKERELVAAISTSDGSTYYADSVKGRFTISRDNAKNTVYLQMNSLKPEDTAVYYCAASYQFYRKYAYDYWGQGTQVTVSS | low polyreactivity
30 | QVQLVESGGGLVQAGGSLRLSCAASGLIFVVYAMGWYRPAPGKERELVADISSGGRTSYADSVKGRFTISRDNAKNTVYLQMNSLKPEDTAVYYCNAYPVFNQYYGWRYDYWGQGTQVTVSS | low polyreactivity
31 | QVQLVESGGGLVQAGGSLRLSCDASGSIFRAYAMRWYRQAPGKERELVAAISSSSGRTYYADSVKGRFTISRDNAKTTVYLQLNSLKPEDTAVYYCAVTASTLVTSATYDYWGQGTQVTLSS | low polyreactivity
32 | QVQLVESGGGLVQAGGSLRLSCAASGRIFLGYAKGWYRQAPGKERELVAAINRSGSSTYYADSVKGRFTISRDIAKNTVYLQMNSLKPEHSAVYYCNARSGNRYGPRYDYWVQGTQVTVSS | high polyreactivity
33 | QVQLVESGGGLVQAGGSLRLSCAASGRIFLKNAMGWYRQAPGKERELVAVISRGGSTYYADSVKGRFTISRDNAKNTVYLQMNSLKPEDTAVYYCAAPYNVIFGGLDYWGQGTQVTVSS | high polyreactivity
34 | QVQLVESGGGLVQAGGSLRLSCAASGRIFYANSMGWYRQAPGKERELVASISARGGYTYYADSVKGRFTISRDTAKNTVYLQMNSLKPEDTAVYYCAAEYLAVSGYWYAYWGQGTQVTVSS | high polyreactivity
35 | QVQLVESGGGLVQAGGSLRLSCAASGSTFQPYAMGWYRQAPGKERELVAAISWSGVSTSYADSVKGRFTISRDNAKNTVYLQMNSLKPEETAVYYPFYEYYYWVQGTQVTVSS | low polyreactivity
36 | QVQLVESGGGLVQAGGSLRLSCAASGSTFYQYVMGWYRQAPGKERELVADITNGGSTYYADSVKGRFTISRDNAKNTVYLQMNSLKPEDTAVYYCAADGGYYWYTYWYGGLYYWGQGTQVTVSS | high polyreactivity
37 | QVQLVESGGGLVQAGGSLRLSCAASGSTFSYYAMGWYRQAPGKERELVAAISWSGGSKYYADSVKGRFTISRDNAKNTVYLQMNSLKPEDTAVYYCAVYYSYWFDYWGQGTQVTVSS | high polyreactivity
38 | QVQLVDSGGGLVQAGGSLRLSCAASGRTFQRNAMGWYRQAPGTERELVATITTNGGSTYYADSVKGRFTISRDNAKNTVYLQMNSLKPEDTAVYYCAAPFNPRVRTLRSVRMDYWGQGTQVTVSS | low polyreactivity
39 | QVQLVESVGGLVQAGGSLRISCAASGFIFKSYSMGWYRQAPGKERELVAAISWIGGRTYYADSVKGRFTISRDNAKYTVYLQMNSLKPEDTAVYYCAKVVKYQSGGGLEYWGQGTQVTVSS | high polyreactivity
40 | QVQLVESGGGLVQAGGSLRLSCDASGNILPSNAMGWYRQAPGKERELVAAITWSVGRTYYADSVKGRFTISRDNAKNTVYLQMNSLKPEDTAVYYCNAQDTPYEGRYDESEYDYWGQGTQVTVSS | low polyreactivity
41 | QVQLVESGGGLVQAGGSLRLSCAASGISFERNGMGWYRQATGKERELVAAIRSGGSTYYADSVKGRFTISRDNAKNRVYVQMHSLKPEETAVYYCAAVTQGGYTDLGDYWGQGTQVTVSS | low polyreactivity
42 | QVQLVESGGGLVQAGGSLRLICAASGSTQSPYAMGWYRQAPGKERDFVAAISTSGVSTYYADSVKGRFTISRDNAKNTVDLQMNSLKPVDTAVYYCATRYYIYGSTLKLYDYWGQGTQVTVSS | high polyreactivity
43 | QVQLVESGGGLVQAGGSLRLSCAASGRTFVSHAMGWYRQAPGKERELVAAITNGGRTYYADSVKGRFTISRDNAKNTVYLQMNSLKPEDTAVYYCAAYVPTFKDRSRWYGRKYDYWGQGTQVTVSS | low polyreactivity
